Measurements published in article PMC3058911.

Experiments:
[1] = target: CdiI3937-2-T18 (bacterial two-hybrid fusion) (Dickeya dadantii 3937) (UniProt E0SDG7); experiment: two-hybrid
[2] = target: CdiI536-T18 (bacterial two-hybrid fusion) (E. coli UPEC 536); experiment: two-hybrid

Sequence of UniProt E0SDG7 (E0SDG7 whole entry, the tested form may be a part): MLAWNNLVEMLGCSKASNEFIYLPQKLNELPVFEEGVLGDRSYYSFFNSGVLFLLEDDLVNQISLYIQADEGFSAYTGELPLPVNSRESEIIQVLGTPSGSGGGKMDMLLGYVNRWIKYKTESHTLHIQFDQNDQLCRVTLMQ

Substance: T25-CdiA-CT3937-2 (bacterial two-hybrid fusion) (from UniProt E0SDG8 1-3326) (domain or fragment)
- β-galactosidase activity [1]: > 300 units

Substance: T25-CdiA-CT536 (bacterial two-hybrid fusion) (domain or fragment)
- β-galactosidase activity [2]: > 300 units
